For this assay, the target named is unlabelled HP1α (human, UniProt P45973 1-191).
Chain of unlabelled HP1α (P45973 whole entry): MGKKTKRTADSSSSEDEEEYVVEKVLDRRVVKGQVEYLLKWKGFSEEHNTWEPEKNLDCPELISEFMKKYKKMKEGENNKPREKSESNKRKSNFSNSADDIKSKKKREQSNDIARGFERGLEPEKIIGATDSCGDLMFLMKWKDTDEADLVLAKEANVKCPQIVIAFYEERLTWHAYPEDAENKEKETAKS

One may read the Kd as the concentration at which binding is half-saturated. Consider ARTKQTARKSTGGK (trimethyl-lysine at K9) [H3K9me3 1–14 peptide], for which the equilibrium dissociation constant (Kd) was 7.57 µM.

For the origin of these results see article PMC4557296 (2015).
